This passage reports Observed mass (Da) after in vitro decarboxylation with MutD, 1 hr (MALDI-TOF) and Observed mass (Da) after in vitro decarboxylation with MutD, 10 hr (MALDI-TOF) results from patent publication US20180118791.

For data set [1], the system named is T1, mutacin 1140 C-terminal carboxyl analog (mu1140-COOH).
T1 sequence: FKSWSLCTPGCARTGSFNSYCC

Another data set concerns T2, SFNSYTC.
T2 sequence: SFNSYTC

As for MutD, in data set [1], the Observed mass (Da) after in vitro decarboxylation with MutD, 1 hr (MALDI-TOF) worked out at 2310 Da and the Observed mass (Da) after in vitro decarboxylation with MutD, 10 hr (MALDI-TOF) was found to be 2310 Da. The substance also gave an Observed mass (Da) after in vitro decarboxylation with MutD, 1 hr (MALDI-TOF) in the data set on SFNSYTC of 798 Da.
